We go through one variant from IntAct's records for PubMed 22057290.

The labels stand for the following.
B1: Ubiquitin carboxyl-terminal hydrolase CYLD (Homo sapiens), Q9NQC7 (parent)
chain: MSSGLWSQEKVTSPYWEERIFYLLLQECSVTDKQTQKLLKVPKGSIGQYIQDRSVGHSRIPSAKGKKNQIGLKILEQPHAVLFVDEKDVVEINEKFTELLLAITNCEERFSLFKNRNRLSKGLQIDVGCPVKVQLRSGEEKFPGVVRFRGPLLAERTVSGIFFGVELLEEGRGQGFTDGVYQGKQLFQCDEDCGVFVALDKLELIEDDDTALESDYAGPGDTMQVELPPLEINSRVSLKVGETIESGTVIFCDVLPGKESLGYFVGVDMDNPIGNWDGRFDGVQLCSFACVESTILLHINDIIPALSESVTQERRPPKLAFMSRGVGDKGSSSHNKPKATGSTSDPGNRNRSELFYTLNGSSVDSQPQSKSKNTWYIDEVAEDPAKSLTEISTDFDRSSPPLQPPPVNSLTTENRFHSLPFSLTKMPNTNGSIGHSPLSLSAQSVMEELNTAPVQESPPLAMPPGNSHGLEVGSLAEVKENPPFYGVIRWIGQPPGLNEVLAGLELEDECAGCTDGTFRGTRYFTCALKKALFVKLKSCRPDSRFASLQPVSNQIERCNSLAFGGYLSEVVEENTPPKMEKEGLEIMIGKKKGIQGHYNSCYLDSTLFCLFAFSSVLDTVLLRPKEKNDVEYYSETQELLRTEIVNPLRIYGYVCATKIMKLRKILEKVEAASGFTSEEKDPEEFLNILFHHILRVEPLLKIRSAGQKVQDCYFYQIFMEKNEKVGVPTIQQLLEWSFINSNLKFAEAPSCLIIQMPRFGKDFKLFKKIFPSLELNITDLLEDTPRQCRICGGLAMYECRECYDDPDISAGKIKQFCKTCNTQVHLHPKRLNHKYNPVSLPKDLPDWDWRHGCIPCQNMELFAVLCIETSHYVAFVKYGKDDSAWLFFDSMADRDGGQNGFNIPQVTPCPEVGEYLKMSLEDLHSLDSRRIQGCARRLLCDAYMCMYQSPTMSLYK

In the experiment the parent is B1. The conditions noted are these: with itch_human ITCH.
As to Y485A, the “effect of a mutation on the interaction” value is on record as “disrupting interaction”.
